Reference: patent US20250262210A1 (TRUSTEES OF COLUMBIA UNIVERSITY IN THE CITY OF NEW YORK, published 2025)

Legend:
Experiment in all cases: IP/MS, LZTR1 wild type-FLAG, U87
LAMB3 = target: T1, LAMB3 (human, UniProt Q13751 18-1172)
T1 sequence (looked up): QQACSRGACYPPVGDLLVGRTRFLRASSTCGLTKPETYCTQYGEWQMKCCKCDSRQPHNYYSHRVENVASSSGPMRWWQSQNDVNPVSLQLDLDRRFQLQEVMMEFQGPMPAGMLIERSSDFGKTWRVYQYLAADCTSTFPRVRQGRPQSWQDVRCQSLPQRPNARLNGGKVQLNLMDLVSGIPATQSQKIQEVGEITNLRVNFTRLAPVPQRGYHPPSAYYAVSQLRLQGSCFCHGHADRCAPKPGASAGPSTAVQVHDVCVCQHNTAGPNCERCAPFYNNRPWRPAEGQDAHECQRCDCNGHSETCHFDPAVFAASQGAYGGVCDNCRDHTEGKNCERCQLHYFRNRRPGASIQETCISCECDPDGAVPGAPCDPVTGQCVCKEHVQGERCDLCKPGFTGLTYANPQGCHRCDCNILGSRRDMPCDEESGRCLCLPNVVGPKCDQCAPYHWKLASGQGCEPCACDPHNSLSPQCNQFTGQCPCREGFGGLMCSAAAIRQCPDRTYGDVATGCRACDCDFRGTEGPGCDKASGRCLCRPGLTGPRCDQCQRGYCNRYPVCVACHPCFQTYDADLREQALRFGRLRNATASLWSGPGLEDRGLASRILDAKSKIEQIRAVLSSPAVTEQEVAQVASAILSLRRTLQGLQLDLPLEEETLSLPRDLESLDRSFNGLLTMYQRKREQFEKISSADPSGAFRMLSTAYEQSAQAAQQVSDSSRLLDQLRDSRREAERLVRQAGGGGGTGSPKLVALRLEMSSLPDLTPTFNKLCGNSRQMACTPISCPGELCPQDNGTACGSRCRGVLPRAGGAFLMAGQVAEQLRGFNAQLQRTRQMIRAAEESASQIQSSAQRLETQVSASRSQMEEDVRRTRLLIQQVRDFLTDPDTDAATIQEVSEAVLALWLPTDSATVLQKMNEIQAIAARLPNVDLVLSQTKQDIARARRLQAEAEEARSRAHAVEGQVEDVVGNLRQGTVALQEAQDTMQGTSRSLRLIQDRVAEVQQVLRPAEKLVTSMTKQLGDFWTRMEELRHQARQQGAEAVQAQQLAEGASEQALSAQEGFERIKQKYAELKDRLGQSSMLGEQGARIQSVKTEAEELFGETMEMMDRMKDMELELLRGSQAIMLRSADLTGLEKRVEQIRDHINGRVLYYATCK
In short: (§1)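 Read-out: spectral counts from LC-MS/MS (Orbitrap Fusion) after MaxQuant identification. Variable modifications were Met oxidation, protein N-terminal acetylation and N/Q deamidation.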

NCAPG2 = target: T2, NCAPG2 (human, UniProt Q86XI2 1-1143, limits assumed)
T2 sequence (looked up): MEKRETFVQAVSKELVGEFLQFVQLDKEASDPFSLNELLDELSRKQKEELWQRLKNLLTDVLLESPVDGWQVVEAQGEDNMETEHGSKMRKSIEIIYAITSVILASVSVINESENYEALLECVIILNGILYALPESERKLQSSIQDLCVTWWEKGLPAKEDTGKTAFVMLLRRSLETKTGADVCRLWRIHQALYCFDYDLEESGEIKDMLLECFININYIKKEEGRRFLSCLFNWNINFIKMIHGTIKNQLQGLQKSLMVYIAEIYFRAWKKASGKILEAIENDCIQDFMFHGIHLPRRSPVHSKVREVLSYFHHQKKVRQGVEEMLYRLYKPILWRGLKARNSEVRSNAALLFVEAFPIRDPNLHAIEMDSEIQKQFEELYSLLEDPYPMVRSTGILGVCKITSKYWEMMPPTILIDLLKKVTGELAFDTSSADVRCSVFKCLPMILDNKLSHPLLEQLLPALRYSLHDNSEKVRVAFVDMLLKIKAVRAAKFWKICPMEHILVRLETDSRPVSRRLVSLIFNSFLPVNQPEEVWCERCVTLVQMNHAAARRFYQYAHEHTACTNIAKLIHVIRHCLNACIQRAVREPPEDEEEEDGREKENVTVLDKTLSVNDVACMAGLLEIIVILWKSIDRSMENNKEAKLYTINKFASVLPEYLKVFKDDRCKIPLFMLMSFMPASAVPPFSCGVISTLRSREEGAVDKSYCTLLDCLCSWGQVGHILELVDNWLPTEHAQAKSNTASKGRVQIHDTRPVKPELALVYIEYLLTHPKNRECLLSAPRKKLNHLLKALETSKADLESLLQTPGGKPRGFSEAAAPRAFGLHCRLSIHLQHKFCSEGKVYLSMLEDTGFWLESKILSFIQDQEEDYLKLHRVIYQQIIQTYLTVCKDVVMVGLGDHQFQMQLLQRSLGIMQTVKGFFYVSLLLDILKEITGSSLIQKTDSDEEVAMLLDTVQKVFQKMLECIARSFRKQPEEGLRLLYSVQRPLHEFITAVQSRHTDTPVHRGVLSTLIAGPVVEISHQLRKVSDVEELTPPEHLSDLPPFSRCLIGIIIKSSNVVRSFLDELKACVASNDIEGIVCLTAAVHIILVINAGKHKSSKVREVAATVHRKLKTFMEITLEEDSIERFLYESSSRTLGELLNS
In short: as §1

HERC2 = HERC2 (human, UniProt O95714 1-4834)
In short: as §1

Measured: binding result

Chain of HERC2 (O95714 whole entry): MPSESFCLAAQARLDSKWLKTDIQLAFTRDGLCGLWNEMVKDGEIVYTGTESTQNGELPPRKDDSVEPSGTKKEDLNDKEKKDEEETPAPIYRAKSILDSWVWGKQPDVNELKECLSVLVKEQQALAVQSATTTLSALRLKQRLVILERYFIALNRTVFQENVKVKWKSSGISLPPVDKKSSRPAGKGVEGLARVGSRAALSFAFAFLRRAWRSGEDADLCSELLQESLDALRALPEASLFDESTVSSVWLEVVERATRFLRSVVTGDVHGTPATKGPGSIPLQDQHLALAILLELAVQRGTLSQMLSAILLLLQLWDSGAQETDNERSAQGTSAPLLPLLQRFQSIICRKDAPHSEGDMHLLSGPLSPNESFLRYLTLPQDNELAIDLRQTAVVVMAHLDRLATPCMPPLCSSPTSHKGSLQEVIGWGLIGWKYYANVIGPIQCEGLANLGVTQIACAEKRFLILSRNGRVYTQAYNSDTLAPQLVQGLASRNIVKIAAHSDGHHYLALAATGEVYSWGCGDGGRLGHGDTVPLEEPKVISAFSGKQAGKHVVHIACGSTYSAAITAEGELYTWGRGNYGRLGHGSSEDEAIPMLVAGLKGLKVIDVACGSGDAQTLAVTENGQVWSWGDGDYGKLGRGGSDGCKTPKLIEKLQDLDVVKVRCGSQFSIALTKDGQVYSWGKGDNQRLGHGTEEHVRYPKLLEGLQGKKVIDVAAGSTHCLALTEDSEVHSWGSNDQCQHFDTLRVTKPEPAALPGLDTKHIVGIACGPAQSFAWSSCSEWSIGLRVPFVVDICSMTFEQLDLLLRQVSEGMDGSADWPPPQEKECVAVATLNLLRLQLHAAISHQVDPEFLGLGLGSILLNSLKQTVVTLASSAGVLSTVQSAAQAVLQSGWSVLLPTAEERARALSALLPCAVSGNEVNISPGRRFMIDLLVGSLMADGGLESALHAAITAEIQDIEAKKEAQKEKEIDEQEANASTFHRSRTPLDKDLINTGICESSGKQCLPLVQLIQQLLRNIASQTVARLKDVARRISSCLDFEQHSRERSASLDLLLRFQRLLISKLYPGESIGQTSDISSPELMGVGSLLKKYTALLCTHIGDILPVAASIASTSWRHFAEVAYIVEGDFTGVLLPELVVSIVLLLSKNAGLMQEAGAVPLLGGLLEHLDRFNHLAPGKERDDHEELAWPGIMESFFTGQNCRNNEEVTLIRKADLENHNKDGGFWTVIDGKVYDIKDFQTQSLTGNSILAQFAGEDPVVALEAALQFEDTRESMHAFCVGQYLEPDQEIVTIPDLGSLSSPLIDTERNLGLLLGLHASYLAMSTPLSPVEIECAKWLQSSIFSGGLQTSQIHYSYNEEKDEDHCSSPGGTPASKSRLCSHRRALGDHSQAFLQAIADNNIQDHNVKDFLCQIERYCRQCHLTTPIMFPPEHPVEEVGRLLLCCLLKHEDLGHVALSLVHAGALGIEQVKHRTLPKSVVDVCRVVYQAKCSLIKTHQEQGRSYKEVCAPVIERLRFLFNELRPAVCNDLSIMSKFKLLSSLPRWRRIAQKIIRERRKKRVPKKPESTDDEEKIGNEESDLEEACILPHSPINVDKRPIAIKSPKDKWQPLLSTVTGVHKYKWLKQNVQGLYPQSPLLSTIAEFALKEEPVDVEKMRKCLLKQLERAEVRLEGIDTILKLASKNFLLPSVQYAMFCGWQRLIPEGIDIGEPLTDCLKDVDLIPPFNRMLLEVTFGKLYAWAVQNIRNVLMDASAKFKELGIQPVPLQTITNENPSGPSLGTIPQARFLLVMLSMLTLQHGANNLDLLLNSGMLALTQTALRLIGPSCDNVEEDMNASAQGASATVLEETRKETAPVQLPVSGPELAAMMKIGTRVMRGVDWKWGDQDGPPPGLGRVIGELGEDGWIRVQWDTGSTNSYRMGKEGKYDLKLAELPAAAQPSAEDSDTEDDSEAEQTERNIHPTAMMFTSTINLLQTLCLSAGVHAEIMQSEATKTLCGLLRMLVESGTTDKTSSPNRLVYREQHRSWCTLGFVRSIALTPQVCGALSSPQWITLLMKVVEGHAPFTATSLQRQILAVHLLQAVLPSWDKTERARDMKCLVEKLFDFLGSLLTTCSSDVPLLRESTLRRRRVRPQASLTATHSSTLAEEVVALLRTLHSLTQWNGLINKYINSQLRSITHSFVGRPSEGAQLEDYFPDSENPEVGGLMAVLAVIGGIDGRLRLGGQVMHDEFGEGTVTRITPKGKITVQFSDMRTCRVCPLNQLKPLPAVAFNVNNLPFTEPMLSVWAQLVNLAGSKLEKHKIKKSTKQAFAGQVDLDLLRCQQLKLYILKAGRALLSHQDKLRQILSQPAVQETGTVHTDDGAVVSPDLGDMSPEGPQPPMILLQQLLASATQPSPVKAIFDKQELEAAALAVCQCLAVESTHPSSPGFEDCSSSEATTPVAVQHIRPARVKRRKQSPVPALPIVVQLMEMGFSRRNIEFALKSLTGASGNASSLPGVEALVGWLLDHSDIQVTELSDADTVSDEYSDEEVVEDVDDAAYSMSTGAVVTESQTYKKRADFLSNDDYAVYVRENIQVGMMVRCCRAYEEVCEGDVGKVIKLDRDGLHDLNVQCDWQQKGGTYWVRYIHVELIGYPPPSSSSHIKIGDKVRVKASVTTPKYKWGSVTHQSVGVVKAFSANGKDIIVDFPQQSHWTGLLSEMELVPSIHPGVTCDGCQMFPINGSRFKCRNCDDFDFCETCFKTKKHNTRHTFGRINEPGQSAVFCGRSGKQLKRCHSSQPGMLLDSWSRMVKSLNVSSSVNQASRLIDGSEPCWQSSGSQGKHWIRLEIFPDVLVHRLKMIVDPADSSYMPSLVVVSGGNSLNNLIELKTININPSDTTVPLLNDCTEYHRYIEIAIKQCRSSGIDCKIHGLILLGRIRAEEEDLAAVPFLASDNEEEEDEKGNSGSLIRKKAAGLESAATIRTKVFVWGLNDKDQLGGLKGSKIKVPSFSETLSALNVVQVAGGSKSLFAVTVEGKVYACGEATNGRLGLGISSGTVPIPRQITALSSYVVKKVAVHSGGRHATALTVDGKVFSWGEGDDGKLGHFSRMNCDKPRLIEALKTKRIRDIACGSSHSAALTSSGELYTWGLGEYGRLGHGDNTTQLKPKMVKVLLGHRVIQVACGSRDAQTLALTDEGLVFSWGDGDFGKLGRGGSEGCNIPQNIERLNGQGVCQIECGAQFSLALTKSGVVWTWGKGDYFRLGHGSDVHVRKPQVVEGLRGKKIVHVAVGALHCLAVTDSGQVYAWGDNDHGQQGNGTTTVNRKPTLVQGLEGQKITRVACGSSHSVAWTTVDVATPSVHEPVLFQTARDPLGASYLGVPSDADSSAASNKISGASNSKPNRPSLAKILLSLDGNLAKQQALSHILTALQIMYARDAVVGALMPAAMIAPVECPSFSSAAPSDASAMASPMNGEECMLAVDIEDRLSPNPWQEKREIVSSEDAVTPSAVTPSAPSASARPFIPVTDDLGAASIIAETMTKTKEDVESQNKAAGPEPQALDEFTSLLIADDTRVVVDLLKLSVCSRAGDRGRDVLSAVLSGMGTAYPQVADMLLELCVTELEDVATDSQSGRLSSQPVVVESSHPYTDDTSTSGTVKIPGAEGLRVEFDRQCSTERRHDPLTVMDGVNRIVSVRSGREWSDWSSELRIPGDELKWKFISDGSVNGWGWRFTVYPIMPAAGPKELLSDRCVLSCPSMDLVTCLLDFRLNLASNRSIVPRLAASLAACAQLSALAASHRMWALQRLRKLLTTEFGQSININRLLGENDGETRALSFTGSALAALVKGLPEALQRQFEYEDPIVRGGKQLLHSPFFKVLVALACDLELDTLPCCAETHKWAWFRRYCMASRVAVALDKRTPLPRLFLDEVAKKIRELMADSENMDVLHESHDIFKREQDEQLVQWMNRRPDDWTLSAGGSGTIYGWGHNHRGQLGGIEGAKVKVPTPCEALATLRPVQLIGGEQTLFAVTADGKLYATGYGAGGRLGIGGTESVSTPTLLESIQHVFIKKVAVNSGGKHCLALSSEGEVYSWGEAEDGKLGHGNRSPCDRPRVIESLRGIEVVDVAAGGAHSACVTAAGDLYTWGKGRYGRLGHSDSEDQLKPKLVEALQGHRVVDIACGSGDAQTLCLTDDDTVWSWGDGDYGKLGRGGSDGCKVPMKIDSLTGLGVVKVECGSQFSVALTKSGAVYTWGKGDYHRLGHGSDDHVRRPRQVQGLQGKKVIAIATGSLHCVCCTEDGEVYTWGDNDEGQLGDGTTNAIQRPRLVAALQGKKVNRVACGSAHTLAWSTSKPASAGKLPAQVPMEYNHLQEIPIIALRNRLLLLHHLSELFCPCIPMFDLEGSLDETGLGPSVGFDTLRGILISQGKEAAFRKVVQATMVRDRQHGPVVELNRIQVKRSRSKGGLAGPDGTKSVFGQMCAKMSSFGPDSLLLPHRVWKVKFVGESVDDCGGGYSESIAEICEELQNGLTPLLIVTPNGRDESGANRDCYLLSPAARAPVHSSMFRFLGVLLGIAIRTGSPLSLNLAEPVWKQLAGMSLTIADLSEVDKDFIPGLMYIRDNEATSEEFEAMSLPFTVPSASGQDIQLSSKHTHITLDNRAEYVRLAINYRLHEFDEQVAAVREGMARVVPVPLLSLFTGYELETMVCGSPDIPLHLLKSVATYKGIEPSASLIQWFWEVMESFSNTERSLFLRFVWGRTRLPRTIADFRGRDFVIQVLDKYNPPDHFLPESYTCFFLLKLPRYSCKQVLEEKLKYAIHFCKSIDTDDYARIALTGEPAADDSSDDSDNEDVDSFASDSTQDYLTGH

B1: LZTR1-FLAG (other, human, UniProt Q8N653 1-840, looked up)
chain: MAGPGSTGGQIGAAALAGGARSKVAPSVDFDHSCSDSVEYLTLNFGPFETVHRWRRLPPCDEFVGARRSKHTVVAYKDAIYVFGGDNGKTMLNDLLRFDVKDCSWCRAFTTGTPPAPRYHHSAVVYGSSMFVFGGYTGDIYSNSNLKNKNDLFEYKFATGQWTEWKIEGRLPVARSAHGATVYSDKLWIFAGYDGNARLNDMWTIGLQDRELTCWEEVAQSGEIPPSCCNFPVAVCRDKMFVFSGQSGAKITNNLFQFEFKDKTWTRIPTEHLLRGSPPPPQRRYGHTMVAFDRHLYVFGGAADNTLPNELHCYDVDFQTWEVVQPSSDSEVGGAEVPERACASEEVPTLTYEERVGFKKSRDVFGLDFGTTSAKQPTQPASELPSGRLFHAAAVISDAMYIFGGTVDNNIRSGEMYRFQFSCYPKCTLHEDYGRLWESRQFCDVEFVLGEKEECVQGHVAIVTARSRWLRRKITQARERLAQKLEQEAAPVPREAPGVAAGGARPPLLHVAIREAEARPFEVLMQFLYTDKIKYPRKGHVEDVLLIMDVYKLALSFQLCRLEQLCRQYIEASVDLQNVLVVCESAARLQLSQLKEHCLNFVVKESHFNQVIMMKEFERLSSPLIVEIVRRKQQPPPRTPLDQPVDIGTSLIQDMKAYLEGAGAEFCDITLLLDGHPRPAHKAILAARSSYFEAMFRSFMPEDGQVNISIGEMVPSRQAFESMLRYIYYGEVNMPPEDSLYLFAAPYYYGFYNNRLQAYCKQNLEMNVTVQNVLQILEAADKTQALDMKRHCLHIIVHQFTKVSKLPTLRSLSQQLLLDIIDSLASHISDKQCAELGADI
notes: Expressed in HEK 293T, HeLa or U87 cells; used as cell lysate; also called LZTR1 wild type-FLAG; LZTR1 WT; not shown: FLAG tag at the C-terminus
binds: all assays above
